Results from article PMC8943035.

Target: muscle RAS oncogene homolog (MRAS) fused to mCherry, expressed from pmCherry-MRAS (UniProt O14807)
Assay: FRET or BRET; FRET between GFP (donor, excited at 488 nm) and mCherry (acceptor, emission 610 nm) fusion proteins, imaged in MCF-7 cells

Substance “G-protein gamma subunit 2 (GNG2) fused to EGFP, expressed from pEGFP-GNG2 (from UniProt P59768 1-71) (natural protein)” has an FRET efficiency of 11%.
